Results taken from US10513545B2, “Fusion polypeptide in which anti-inflammatory polypeptide and ferritin monomer fragment are bound and pharmaceutical composition for preventing and treating inflammatory diseases, containing same as active ingredient” (KYUNGPOOK NATIONAL UNIVERSITY INDUSTRY-ACADEMIC COOPERATION …, priority 2015, dated 2019).

Key:
IL-6, IL-10, TNF-α = test: blood inflammatory cytokines (ELISA) in CLP-induced sepsis; type: in vivo, mouse; settings: for level of IL-6 / level of IL-10: FIG. 18A; for level of TNF-α: FIG. 18B
Method: (§1) To induce inflammation, male mice were anesthetized with 2% isoflurane (JW Pharmaceutical, Republic of Korea) in oxygen delivered via a small rodent gas anesthesia machine (RC2, Vetequip, Pleasanton, Calif.), first in a breathing chamber and then via a facemask. They were allowed to breathe spontaneously during this procedure. The CLP-induced inflammation model was prepared as previously described. In brief, a 2-cm midline incision was made to expose the cecum and adjoining intestine. The cecum was then tightly ligated with a 3.0-silk suture at 5.0 mm from the cecal tip and punctured once using a 22-gauge needle for the induction of high grade inflammation. It was then squeezed gently to extrude a small amount of feces from the perforation site and returned to the peritoneal cavity. The laparotomy site was then sutured with 4.0-silk. In sham control animals, the cecum was exposed but not ligated or punctured and then returned to the abdominal cavity. This protocol was approved by the Animal Care Committee at Kyungpook National University prior to the conduct of the study (IRP No, KNU 2012-13).
(§2) Fresh serum was used for assaying aspartate transaminase (AST), alanine transaminase (ALT), blood urea nitrogen (BUN), creatinine, and LDH using biochemical kits (Mybiosource). To determine the concentrations of IL-6, IL-10, and TNF-α, commercially available ELISA kits were used according to the manufacturer's protocol (R&D Systems). Values were measured using an ELISA plate reader (Tecan, Austria GmbH, Austria).

CLP-induced sepsis = test: serum organ injury markers (ALT, AST, creatinine, BUN, LDH) in CLP-induced sepsis; type: in vivo, mouse; settings: FIG. 17
Method: as §1, §2

MMP-2 = molecular target: T1, MMP-2 (Homo sapiens, UniProt P08253); test: cleavage of nanocaged TFMG by activated MMP-2; type: biochemical; settings: p-aminophenylmercuric acetate-activated MMP-2, FIG. 6-8
T1 sequence (P08253 110-660): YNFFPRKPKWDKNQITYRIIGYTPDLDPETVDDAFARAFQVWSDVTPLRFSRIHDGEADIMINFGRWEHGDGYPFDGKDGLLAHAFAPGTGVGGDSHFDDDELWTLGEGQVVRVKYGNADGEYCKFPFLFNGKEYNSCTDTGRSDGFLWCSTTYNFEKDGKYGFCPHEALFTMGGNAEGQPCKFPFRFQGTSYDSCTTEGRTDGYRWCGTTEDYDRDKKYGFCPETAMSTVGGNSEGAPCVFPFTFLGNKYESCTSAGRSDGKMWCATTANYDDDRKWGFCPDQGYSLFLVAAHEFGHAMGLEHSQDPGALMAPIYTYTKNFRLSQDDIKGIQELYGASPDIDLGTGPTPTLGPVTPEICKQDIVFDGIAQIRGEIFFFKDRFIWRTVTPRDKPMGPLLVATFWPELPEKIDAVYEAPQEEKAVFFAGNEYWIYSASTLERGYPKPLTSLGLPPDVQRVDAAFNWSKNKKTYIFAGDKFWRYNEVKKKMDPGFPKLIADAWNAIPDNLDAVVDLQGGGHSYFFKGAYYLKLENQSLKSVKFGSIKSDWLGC
Method: To evaluate whether TFMG could be selectively cleaved by MMP2, TFMG was incubated with APMA-mediated activated MMP-2 in PBS at 37° C. for 3 h. The cleaved fragments of TFMG were detected by MALDI-ToF.

soluble EPCR (sEPCR) = molecular target: T2, soluble EPCR (sEPCR) (Homo sapiens, UniProt Q9UNN8); test: solid-phase ELISA for binding affinity to soluble EPCR; settings: FIG. 9, read-out: Kd(app) for the interaction with sEPCR
T2 construct: 96-well flat microtiter plates were coated with soluble EPCR
T2 sequence (Q9UNN8 18-210 limits assumed): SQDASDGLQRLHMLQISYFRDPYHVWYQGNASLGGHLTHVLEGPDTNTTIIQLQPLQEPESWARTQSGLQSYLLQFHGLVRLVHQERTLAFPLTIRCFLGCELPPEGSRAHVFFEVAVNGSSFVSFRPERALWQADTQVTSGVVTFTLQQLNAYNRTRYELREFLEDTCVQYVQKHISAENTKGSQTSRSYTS
Method: 9. Enzyme-Linked Immunosorbent Assays (ELISA) for Evaluating EPCR (Endothelial Protein C Receptor) Binding Affinity
To evaluate the interaction of the wild-type PC, PC-Gla peptides, TFG, and TFMG with EPCR, 96-well flat microtiter plates were coated with soluble EPCR in 20 mM carbonate-bicarbonate buffer (pH 9.6) containing 0.02% sodium azide, overnight at 4° C. After the plates were washed three times in TBS buffer (0.1 M NaCl, 0.02 M Tris-HCl, pH 7.4) containing 0.05% Tween 20, the plates were incubated with wild-type PC, PC-Gla peptides, TFG, and TFMG (7-1000 nM) diluted in the buffer for 1 h. After the plates were rinsed again, they were incubated with a goat anti-protein C polyclonal antibody (1:1000) for 1 h. Then, the plates were washed and incubated with rabbit anti-goat IgG (KPL, MD, 1:1000) for 1 h. After washing, the plates were incubated with 2,2′-azino-di(3-ethylbenzthiazoline-6-sulfonate) (ABTS; KPL, Gaithersburg, Md.). Colorimetric analysis was performed by measuring absorbance values at 405 nm.

B1: TFG: fusion polypeptide: TRAP at N-terminus and PC-Gla at C-terminus of short ferritin monomer fragment, forms nanocage (apparently SEQ ID NO: 14) (protein)
chain: MGGTTFLLRNASGHMSSQIRQNYSTDVEAAVNSLVNLYLQASYTYLSLGFYFDRDDVALEGVSHFFRELAEEKREGYERLLKMQNQRGGRIFLQDIKKPAEDEWGKTPDAMKAAMALEKKLNQALLDLHALGSARTDPHLCDFLETHFLDEEVKLIKKMGDHLTNLHRLGGGSEFVDGGGSGTSANSFLEELRHSSLERECIEEICDFEEAKEIFQNVDDTLAFWSKHVLEHHHHHH
modifications: Fusion polypeptide (1)
level of IL-6 (IL-6, IL-10, TNF-α): mitigated | level of IL-10 (IL-6, IL-10, TNF-α): mitigated | level of TNF-α (IL-6, IL-10, TNF-α): mitigated | toxicity indicator for general organs (LDH) (CLP-induced sepsis): considerably improved | toxicity indicators for kidneys (creatinine and BUN) (CLP-induced sepsis): considerably improved | toxicity indicators for liver (ALT and AST) (CLP-induced sepsis): considerably improved

B2: TFMG: as TFG with an MMP-2 cleavable linker (GPLGLAG) between ferritin fragment C-terminus and PC-Gla (apparently SEQ ID NO: 15) (protein)
chain: MGGTTFLLRNASGHMSSQIRQNYSTDVEAAVNSLVNLYLQASYTYLSLGFYFDRDDVALEGVSHFFRELAEEKREGYERLLKMQNQRGGRIFLQDIKKPAEDEWGKTPDAMKAAMALEKKLNQALLDLHALGSARTDPHLCDFLETHFLDEEVKLIKKMGDHLTNLHRLGGGSEFVDGGGSGTSGPLGLAGANSFLEELRHSSLERECIEEICDFEEAKEIFQNVDDTLAFWSKHVLEHHHHHH
modifications: Fusion polypeptide (2)
release of PC-Gla by linker cleavage with MMP-2 (MMP-2): continuously released PC-Gla | level of IL-6 (IL-6, IL-10, TNF-α): mitigated | level of IL-10 (IL-6, IL-10, TNF-α): mitigated | level of TNF-α (IL-6, IL-10, TNF-α): mitigated | Kd (soluble EPCR (sEPCR)): 307 nM | toxicity indicator for general organs (LDH) (CLP-induced sepsis): considerably improved | toxicity indicators for kidneys (creatinine and BUN) (CLP-induced sepsis): considerably improved | toxicity indicators for liver (ALT and AST) (CLP-induced sepsis): considerably improved
